Results on 1 molecule are retold here after US20180153953A1 (CITY OF HOPE, published 2018).

The assay addresses T1, Mu-type opioid receptor (Homo sapiens) (Homo sapiens, UniProt P35372 1-400).
T1 construct: Endogenous receptor of PANC-1 cells, PANC-1 MCTS, normal pancreatic epithelial cells and patient tissue (fixed cells or cell lysates); also called MOR; mu opioid receptor
As to the kind of experiment: co-immunoprecipitation: lysates of normal pancreatic epithelial cells or PANC-1 cells, IP anti-MOR, blot anti-CXCR4. The source says:
FIG. 3A-3D: There is no co-localization between MOR and CXCR4. FIG. 3A. […] Peak centers are shown. FIG. 3B. […] Peak centers are shown. FIG. 3C. Cross-correlation curves with s.e.m show no co-localization between MOR and CXCR4 in PANC-1 cells (diamonds, N=32 regions from 14 cells), PANC-1 MCTS (triangles, N=20 regions from 12 cells), and normal pancreatic epithelial cells (circles, N=21 regions from 13 cells). In all cases no long-range correlations were observed. FIG. 3D. Cell lysates from either normal pancreatic epithelial cells or PANC-1 cells were immunoprecipitated with anti-MOR antibody and immunoblotted with anti-CXCR4 antibody. CXCR4 was not detected in the MOR immunoprecipitate in either cell line.
Co-immunoprecipitation was performed using the co-immunoprecipitation kit (Pierce) per the manufacturer's protocol. Briefly, MOR antibody was immobilized using a coupling resin. PANC-1 or normal pancreatic epithelial cells were lysed using buffer containing 1% Nonidet P-40, 10% glycerol, 50 mM Tris-Cl, pH 7.4, 300 mM NaCl, 1.5 mM MgCl₂, 1 mM CaCl₂ and protease inhibitor tablets (Pierce) similarly as described before (Rozenfeld and Devi, 2007), pre-cleared and added to the antibody coupled resin and incubated with gentle shaking overnight at 4° C. After thorough washes, the protein sample co-immunoprecipitate was eluted and used for Western blotting with SSTR2 or CXCR4 antibodies. […]

T1 sequence (P35372 whole entry): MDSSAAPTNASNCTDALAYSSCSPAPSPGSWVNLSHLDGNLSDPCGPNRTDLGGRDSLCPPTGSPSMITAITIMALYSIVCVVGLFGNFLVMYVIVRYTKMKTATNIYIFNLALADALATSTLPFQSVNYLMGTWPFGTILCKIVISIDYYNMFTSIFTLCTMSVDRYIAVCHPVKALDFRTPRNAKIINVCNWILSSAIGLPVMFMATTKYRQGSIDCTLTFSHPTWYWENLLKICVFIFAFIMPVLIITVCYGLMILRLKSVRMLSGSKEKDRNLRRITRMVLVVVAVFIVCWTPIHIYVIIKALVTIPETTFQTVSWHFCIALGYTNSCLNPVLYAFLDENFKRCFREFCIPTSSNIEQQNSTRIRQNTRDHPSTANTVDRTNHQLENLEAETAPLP

B1: C-X-C motif receptor 4 (CXCR4) (receptor, human, UniProt P61073 1-352, looked up)
chain: MEGISIYTSDNYTEEMGSGDYDSMKEPCFREENANFNKIFLPTIYSIIFLTGIVGNGLVILVMGYQKKLRSMTDKYRLHLSVADLLFVITLPFWAVDAVANWYFGNFLCKAVHVIYTVNLYSSVLILAFISLDRYLAIVHATNSQRPRKLLAEKVVYVGVWIPALLLTIPDFIFANVSEADDRYICDRFYPNDLWVVVFQFQHIMVGLILPGIVILSCYCIIISKLSHSKGHQKRKALKTTVILILAFFACWLPYYIGISIDSFILLEIIKQGCEFENTVHKWISITEALAFFHCCLNPILYAFLGAKFKTSAQHALTSVSRGSSLKILSKGKRGGHSSVSTESESSSFHSS
notes: whole, on cells; Endogenous receptor in fixed cells or cell lysates
For B1, the binding result is given as “no binding”.
